Numbered stars: 1 amine (or outer) side, 2 acyl side, 3 side chain; on linkers, the order of the positions; unused ones are H or OH. Bridge positions count the residues as written; N and C are the ends. Side chains are listed from the residue outwards. Ends that are not written are not given here. * marks the point of attachment. C20 diacid = O=C(O)CCCCCCCCCCCCCCCCCCC(=O)*; γGlu = O=C(O)[C@H](CCC(=O)[*:2])N[*:1]
T1: rat calcitonin receptor (rat, UniProt P32214 25-516)
T1 construct: whole, on cells; Used as membranes prepared from the transfected cells; also called rCTR; rat calcitonin (a) receptor
T1 sequence (looked up): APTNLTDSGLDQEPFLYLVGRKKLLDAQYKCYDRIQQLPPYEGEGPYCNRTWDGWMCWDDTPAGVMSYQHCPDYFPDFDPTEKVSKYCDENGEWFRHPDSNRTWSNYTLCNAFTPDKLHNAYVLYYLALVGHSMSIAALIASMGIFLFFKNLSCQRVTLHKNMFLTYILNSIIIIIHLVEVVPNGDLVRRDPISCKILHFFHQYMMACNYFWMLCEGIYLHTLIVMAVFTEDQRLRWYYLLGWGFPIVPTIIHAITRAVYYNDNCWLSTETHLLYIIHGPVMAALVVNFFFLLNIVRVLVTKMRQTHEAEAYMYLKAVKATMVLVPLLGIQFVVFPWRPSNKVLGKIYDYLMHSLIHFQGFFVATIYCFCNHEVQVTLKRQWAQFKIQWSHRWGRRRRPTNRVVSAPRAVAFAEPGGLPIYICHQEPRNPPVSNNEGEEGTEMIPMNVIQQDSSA

T2: human calcitonin receptor (human, UniProt P30988 25-474)
T2 construct: whole, on cells; Used as membranes prepared from the transfected cells (Assay VII); also called hCTR; hCT
T2 sequence (looked up): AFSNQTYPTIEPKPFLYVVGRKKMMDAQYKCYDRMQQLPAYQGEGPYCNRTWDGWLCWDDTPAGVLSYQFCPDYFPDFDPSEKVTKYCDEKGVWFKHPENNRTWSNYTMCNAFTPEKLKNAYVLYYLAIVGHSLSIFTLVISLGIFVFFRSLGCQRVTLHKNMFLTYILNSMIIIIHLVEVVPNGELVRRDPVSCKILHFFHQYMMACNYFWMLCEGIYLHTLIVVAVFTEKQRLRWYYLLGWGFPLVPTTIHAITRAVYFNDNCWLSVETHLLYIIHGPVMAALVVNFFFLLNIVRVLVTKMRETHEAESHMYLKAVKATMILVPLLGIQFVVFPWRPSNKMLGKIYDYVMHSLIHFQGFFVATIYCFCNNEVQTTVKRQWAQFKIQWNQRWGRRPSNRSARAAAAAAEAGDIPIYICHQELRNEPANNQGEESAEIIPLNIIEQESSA

T3: rat amylin receptor (rat calcitonin receptor + rat RAMP 3) (rat, UniProt P32214 25-516; Q9JJ73 23-147)
T3 construct: whole, on cells; Used as membranes prepared from the transfected cells; also called rAmylin-R; rat amylin 3(a) receptor
T3 sequence (looked up) 1: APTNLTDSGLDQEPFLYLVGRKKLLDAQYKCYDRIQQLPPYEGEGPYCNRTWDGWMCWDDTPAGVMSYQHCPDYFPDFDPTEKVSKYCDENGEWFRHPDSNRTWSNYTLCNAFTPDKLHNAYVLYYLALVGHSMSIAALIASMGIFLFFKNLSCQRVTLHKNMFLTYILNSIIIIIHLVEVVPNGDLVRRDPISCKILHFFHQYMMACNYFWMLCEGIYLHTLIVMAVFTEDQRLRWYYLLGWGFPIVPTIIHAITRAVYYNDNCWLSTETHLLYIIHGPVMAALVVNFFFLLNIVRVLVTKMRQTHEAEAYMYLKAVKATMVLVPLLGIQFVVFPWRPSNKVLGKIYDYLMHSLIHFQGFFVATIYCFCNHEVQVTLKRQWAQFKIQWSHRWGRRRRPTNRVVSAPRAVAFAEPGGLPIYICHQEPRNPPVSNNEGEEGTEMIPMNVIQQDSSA
T3 sequence (looked up) 2: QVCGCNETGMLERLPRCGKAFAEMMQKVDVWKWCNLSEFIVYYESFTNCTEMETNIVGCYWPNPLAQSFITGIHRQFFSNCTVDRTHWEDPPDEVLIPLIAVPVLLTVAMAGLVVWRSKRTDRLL

T4: human calcitonin receptor (human, UniProt P30988 25-474)
T4 construct: whole, on cells; Assay used cell membranes of the transfected BHK cells; also called hCTR; hCT
T4 sequence (looked up): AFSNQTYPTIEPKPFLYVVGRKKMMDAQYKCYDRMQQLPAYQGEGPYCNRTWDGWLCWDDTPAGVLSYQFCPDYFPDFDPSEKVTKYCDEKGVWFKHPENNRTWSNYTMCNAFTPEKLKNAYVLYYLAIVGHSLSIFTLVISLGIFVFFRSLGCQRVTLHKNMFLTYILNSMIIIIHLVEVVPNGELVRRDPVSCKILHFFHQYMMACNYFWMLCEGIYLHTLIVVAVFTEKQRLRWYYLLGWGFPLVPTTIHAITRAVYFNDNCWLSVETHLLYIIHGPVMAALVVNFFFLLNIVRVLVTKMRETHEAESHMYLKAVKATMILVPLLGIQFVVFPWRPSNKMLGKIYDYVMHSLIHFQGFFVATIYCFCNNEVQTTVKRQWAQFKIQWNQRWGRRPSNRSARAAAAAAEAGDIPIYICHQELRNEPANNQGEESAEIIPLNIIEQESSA


Columns and labels:
rat calcitonin receptor [1] = molecular target: T1, rat calcitonin receptor; experiment: ratio IC50 rat calcitonin receptor / IC50 rat amylin receptor (Assays VIII and VI)
[2] = molecular target: T2, human calcitonin receptor; experiment: ratio IC50 human calcitonin receptor / IC50 human amylin receptor (Assays VII and V)
Procedure: The resulting pellet was resuspended, homogenized and centrifuged (20.000 rpm, 15 min) in a buffer containing 20 mM Na-HEPES and 0.1 mM EDTA (pH 7.4, buffer 2). The resulting pellet was resuspended in buffer 2 and protein concentration was measured (BCA protein Assay, Pierce). The homogenate was kept cold during the whole procedure. The membranes were kept at −80° C. until use. The assay was performed in a 384 well Optiplate (PerkinElmer) in a total volume of 40 ul. Membranes were mixed with SPA beads. Final concentration of membranes 35 ng/μL final and SPA beads was 0.05 mg/well. Test-compounds were dissolved in DMSO and further diluted in assay buffer (50 mM Hepes, pH 7.4, 1 mM CaCl2, 5 mM MgCl₂, 0.1% OA and 0.02% Tween20). […] The final mixture was incubated with shaking at 400 rpm for 120 min at 25° C. prior to centrifugation (1500 rpm, 10 min). Samples were analyzed on TopCounter™ (Packard). The IC₅₀ was calculated using (one site binding competition analysis) GraphPad Prism5 as a measure of receptor affinity.
Membranes were prepared in the following way; the cells were rinsed with PBS and incubated with Versene for approximately 5 min before harvesting. The cells were flushed with PBS and the cell-suspension was centrifuged for 5 min at 1000 rpm. Cells were homogenized (Ultrathurrax) in a buffer containing 20 mM Na-HEPES and 10 mM EDTA (pH 7.4) and centrifuged at 20.000 rpm for 15 min. The resulting pellet was resuspended, homogenized and centrifuged (20.000 rpm, 15 min) in a buffer containing 20 mM Na-HEPES and 0.1 mM EDTA (pH 7.4, buffer 2). The resulting pellet was resuspended in buffer 2 and protein concentration was measured (BCA protein Assay, Pierce). The homogenate was kept cold during the whole procedure. The membranes were kept at −80° C. until use. Assay was performed in a 384 well Optiplate (PerkinElmer) in a total volume of 40 ul. Membranes were mixed with SPA beads.

rat calcitonin receptor [3] = molecular target: T1, rat calcitonin receptor; experiment: SPA competition with 125I-calcitonin, membranes of BHK cells with rat calcitonin receptor (Assay VIII)
[4] = molecular target: T3, rat amylin receptor (rat calcitonin …); experiment: SPA competition with 125I-rat amylin, membranes of BHK cells with rat calcitonin receptor + rat RAMP3 (Assay VI)
[5] = molecular target: T4, human calcitonin receptor; experiment: SPA radioligand competition (125I-calcitonin), membranes of BHK cells with human calcitonin receptor
Procedure, shortened: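 BHK hCTR membranes 35 ng/μL + SPA beads 0.05 mg/well; buffer 50 mM Hepes pH 7.4, 1 mM CaCl2, 5 mM MgCl₂, 0.1% OA, 0.02% Tween20. 120 min, 25° C., shaking. Scintillation count; IC50 by one-site binding competition.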

[6] = molecular target: T4, human calcitonin receptor; experiment: ratio IC50 hCTR / IC50 hAmylin-R of the two SPA competition assays; reference: human amylin receptor
Procedure, shortened: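 Competition binding by SPA uses membrane preparations (35 ng/μL final) in pH 7.4 Hepes buffer with 1 mM CaCl2 and 5 mM MgCl₂. Incubation lasts 120 min at 25° C, and IC₅₀ comes from one-site fitting.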

Binder | Ratio rCT/rAmylin binding (rat calcitonin receptor [1]) | Ratio hCT/hAmylin binding [2] | IC50 (rat calcitonin receptor [3]) [nM] | IC50 [4] [nM] | IC50 [5] [nM] | Ratio hCT/hAmylin binding [6]
KCNTATCATQRLANFLRHSSPNFGAIPSSTNVGSETY (C20 diacid-gGlu acylated on the alpha amino group of the N-terminal residue (Lys 1); disulfide Cys2-Cys7; C-terminal amide, Derivative of human amylin; also called compound 23) [N^α1-[(4S)-4-carboxy-4-(19-carboxynonadecanoylamino)butanoyl]-[Arg17,Pro21,Pro27,Glu35]-h-amylin] | 71.3 | 25 | 79.9 | 1.12 |  | 
KCNTATCATQRLANFLRHSSPNFGAIPSSTNVGHNTY (C20 diacid-gGlu acylated on the alpha amino group of the N-terminal residue (Lys 1); disulfide Cys2-Cys7; C-terminal amide, Derivative of human amylin; also called compound 40) [N^α1-[(4S)-4-carboxy-4-(19-carboxynonadecanoylamino)butanoyl]-[Arg17,Pro21,Pro27,His34]-h-amylin] | 46.2 | 31.1 | 69.2 | 1.5 |  | 
KCNTATCATQRLANFLRHSSPNFGAIPSSTNVGSKTY (C20 diacid-gGlu acylated on the alpha amino group of the N-terminal residue (Lys 1); disulfide Cys2-Cys7; C-terminal amide, Derivative of human amylin; also called compound 34) [N^α1-[(4S)-4-carboxy-4-(19-carboxynonadecanoylamino)butanoyl]-[Arg17,Pro21,Pro27,Lys35]-h-amylin] | 52 | 64.4 | 89.2 | 1.72 |  | 
{C20 diacid-γGlu}-KCNTATCATQRLANFLRHSSPNFGAIPSSTPVGSETY-NH2 (disulfide 2-7; SMILES CC[C@H](C)[C@H](NC(=O)[C@H](C)NC(=O)CNC(=O)[C@H](Cc1ccccc1)NC(=O)[C@H](CC(N)=O)NC(=O)[C@@H]1CCCN1C(=O)[C@H](CO)NC(=O)[C@H](CO)NC(=O)[C@H](Cc1c[nH]cn1)NC(=O)[C@H](CCCNC(=N)N)NC(=O)[C@H](CC(C)C)NC(=O)[C@H](Cc1ccccc1)NC(=O)[C@H](CC(N)=O)NC(=O)[C@H](C)NC(=O)[C@H](CC(C)C)NC(=O)[C@H](CCCNC(=N)N)NC(=O)[C@H](CCC(N)=O)NC(=O)[C@@H](NC(=O)[C@H](C)NC(=O)[C@@H]1CSSC[C@H](NC(=O)[C@H](CCCCN)NC(=O)CC[C@H](NC(=O)CCCCCCCCCCCCCCCCCCC(=O)O)C(=O)O)C(=O)N[C@@H](CC(N)=O)C(=O)N[C@@H]([C@@H](C)O)C(=O)N[C@@H](C)C(=O)N[C@@H]([C@@H](C)O)C(=O)N1)[C@@H](C)O)C(=O)N1CCC[C@H]1C(=O)N[C@@H](CO)C(=O)N[C@@H](CO)C(=O)N[C@H](C(=O)N1CCC[C@H]1C(=O)N[C@H](C(=O)NCC(=O)N[C@@H](CO)C(=O)N[C@@H](CCC(=O)O)C(=O)N[C@H](C(=O)N[C@@H](Cc1ccc(O)cc1)C(N)=O)[C@@H](C)O)C(C)C)[C@@H](C)O, Derivative of human amylin; also called compound 28) | 44.9 | 20.5 | 54.9 | 1.22 |  | 
K([γGlu-C20 diacid])CNTATCATQRLANFLRHSSPNFGAIPSSTNVGSNTY-NH2 (disulfide 2-7; N-terminus assumed; SMILES CC[C@H](C)[C@H](NC(=O)[C@H](C)NC(=O)CNC(=O)[C@H](Cc1ccccc1)NC(=O)[C@H](CC(N)=O)NC(=O)[C@@H]1CCCN1C(=O)[C@H](CO)NC(=O)[C@H](CO)NC(=O)[C@H](Cc1c[nH]cn1)NC(=O)[C@H](CCCNC(=N)N)NC(=O)[C@H](CC(C)C)NC(=O)[C@H](Cc1ccccc1)NC(=O)[C@H](CC(N)=O)NC(=O)[C@H](C)NC(=O)[C@H](CC(C)C)NC(=O)[C@H](CCCNC(=N)N)NC(=O)[C@H](CCC(N)=O)NC(=O)[C@@H](NC(=O)[C@H](C)NC(=O)[C@@H]1CSSC[C@H](NC(=O)[C@@H](N)CCCCNC(=O)CC[C@H](NC(=O)CCCCCCCCCCCCCCCCCCC(=O)O)C(=O)O)C(=O)N[C@@H](CC(N)=O)C(=O)N[C@@H]([C@@H](C)O)C(=O)N[C@@H](C)C(=O)N[C@@H]([C@@H](C)O)C(=O)N1)[C@@H](C)O)C(=O)N1CCC[C@H]1C(=O)N[C@@H](CO)C(=O)N[C@@H](CO)C(=O)N[C@H](C(=O)N[C@@H](CC(N)=O)C(=O)N[C@H](C(=O)NCC(=O)N[C@@H](CO)C(=O)N[C@@H](CC(N)=O)C(=O)N[C@H](C(=O)N[C@@H](Cc1ccc(O)cc1)C(N)=O)[C@@H](C)O)C(C)C)[C@@H](C)O, Synthetic analogue; also called compound 48) [N^ε1-[(4S)-4-carboxy-4-(19-carboxynonadecanoylamino)butanoyl]-[Arg17,Pro21,Pro27]-h-amylin] |  |  |  |  | 30.9 | 69.7
